Experimental data taken from patent US20220118053A1 (ASCENDIS PHARMA GROWTH DISORDERS A S, published 2022).
Bridges are numbered along the chain shown (N, C = ends). Where no end group is shown, it is not given here.

Target: T1, NPR-B receptor (UniProt P20594 23-1047, limits assumed)
T1 sequence (looked up): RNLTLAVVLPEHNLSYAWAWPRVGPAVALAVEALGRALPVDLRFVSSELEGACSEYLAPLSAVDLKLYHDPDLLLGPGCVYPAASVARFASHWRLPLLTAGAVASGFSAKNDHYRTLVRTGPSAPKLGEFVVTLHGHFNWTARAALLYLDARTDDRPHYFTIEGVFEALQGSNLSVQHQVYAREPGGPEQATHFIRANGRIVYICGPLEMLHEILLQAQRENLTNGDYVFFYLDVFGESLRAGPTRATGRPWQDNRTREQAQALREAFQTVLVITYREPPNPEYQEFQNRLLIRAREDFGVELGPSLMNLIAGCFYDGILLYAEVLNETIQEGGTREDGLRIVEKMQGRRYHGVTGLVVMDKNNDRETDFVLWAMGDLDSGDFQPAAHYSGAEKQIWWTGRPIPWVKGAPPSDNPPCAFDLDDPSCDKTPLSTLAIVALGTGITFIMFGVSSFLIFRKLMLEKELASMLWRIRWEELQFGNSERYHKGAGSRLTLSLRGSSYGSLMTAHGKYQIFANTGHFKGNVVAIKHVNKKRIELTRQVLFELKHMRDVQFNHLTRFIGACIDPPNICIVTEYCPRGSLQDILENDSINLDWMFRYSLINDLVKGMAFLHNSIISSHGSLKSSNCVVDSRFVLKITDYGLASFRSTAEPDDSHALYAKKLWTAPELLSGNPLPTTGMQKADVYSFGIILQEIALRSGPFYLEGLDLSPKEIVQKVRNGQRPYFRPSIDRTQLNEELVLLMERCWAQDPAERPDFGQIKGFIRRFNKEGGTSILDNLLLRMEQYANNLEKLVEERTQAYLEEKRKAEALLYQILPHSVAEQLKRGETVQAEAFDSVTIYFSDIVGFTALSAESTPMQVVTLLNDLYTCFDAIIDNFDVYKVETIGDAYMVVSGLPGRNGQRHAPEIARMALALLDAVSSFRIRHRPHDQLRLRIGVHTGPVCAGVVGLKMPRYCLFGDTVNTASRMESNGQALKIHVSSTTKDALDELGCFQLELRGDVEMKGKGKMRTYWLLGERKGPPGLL
Assay: cell-based or functional assay

Binder: LQEHPNARKYKGANKKGLSKGCFGLKLDRIGSMSGLGC (disulfide 22-38) [CNP-38]
- Biopotency (%), F13, T0; cGMP stimulation in NPR-B overexpressing Hek293 cells, relative to CNP-38 reference standard: 93%
- Biopotency (%), F13, T3M, 5° C.; cGMP stimulation in NPR-B overexpressing Hek293 cells, relative to CNP-38 reference standard: 107%
- Biopotency (%), F13, T3M, 25° C.; cGMP stimulation in NPR-B overexpressing Hek293 cells, relative to CNP-38 reference standard: 91%
- Biopotency (%), F13, T3M, 30° C.; cGMP stimulation in NPR-B overexpressing Hek293 cells, relative to CNP-38 reference standard: 96%
- Biopotency (%), F13, T3M, 40° C.; cGMP stimulation in NPR-B overexpressing Hek293 cells, relative to CNP-38 reference standard: 94%
- Biopotency (%), F13, T6M 25° C.; cGMP stimulation in NPR-B overexpressing Hek293 cells, relative to CNP-38 reference standard: 106%
- Biopotency (%), F13, T6M, 5° C.; cGMP stimulation in NPR-B overexpressing Hek293 cells, relative to CNP-38 reference standard: 95%
- Biopotency (%), F13, T6M, 30° C.; cGMP stimulation in NPR-B overexpressing Hek293 cells, relative to CNP-38 reference standard: 89%
